Source: patent US20060088510A1 (BRIGHAM AND WOMEN S HOSPITAL, published 2006)
No end group written: not given here.

Molecular target: T1, Streptavidin (UniProt P22629 37-163, limits assumed)
T1 construct: also called 35S-streptavidin; Radiolabeled Streptavidin (35S-SLR labeled)
Assay: radioligand binding assay, 35S-streptavidin on 1:100 biotinylated:nonbiotinylated self-assembling peptides (1% w/v)
Source text: We have previously shown that biotinylated peptides can be synthesized and incorporated with self-assembling (Davis, et al., Circ Res 97: 8-15 (2005)). To allow sufficient distance from the peptide to allow streptavidin binding (Livnah, et al., Proc Natl Acad Sci USA 90:5076-5080 (1993); Pugliese, et al., J. Mol Biol 231:698-710 (1993)), the biotin was attached to the peptide by two N-e-Fmoc-e-aminocaproic acids.

T1 sequence (P22629 37-163 limits assumed): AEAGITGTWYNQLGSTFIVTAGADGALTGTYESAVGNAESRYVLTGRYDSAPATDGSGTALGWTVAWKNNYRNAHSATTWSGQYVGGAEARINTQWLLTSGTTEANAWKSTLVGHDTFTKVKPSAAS

B1: Biotinylated RAD16-II peptide (peptide)
peptide: RARADADARARADADA-NH2
modifications: not fully specified (N-terminus); also: biotin linked via 2 aminocaproic acid groups, attachment residue not given here
notes: Synthetic self-assembling peptide; In the assays it was mixed 1:100 with nonbiotinylated RAD16-II (1% final peptide weight/volume) and assembled into fibers; also called biotinylated self-assembling peptides; biotinylated peptides
Kd: 190 nM
